The source of these data is PMC6123645.

This experiment deals with cBid 126C-DAC (caspase-8 cleaved Bid, single cysteine 126C, labelled with DAC) (UniProt P70444). Briefly: FRET or BRET. In general terms: BRET reads energy transfer from a luciferase to a nearby fluorophore.

As a reminder, the Kd is the equilibrium constant for the complex coming apart. The low end stands for higher affinity, the high end for lower affinity. “Bax 126C-NBD S184E (phosphomimetic Bax, single cysteine 126C, labelled with NBD) (from UniProt Q07812 1-192) (natural protein)” displayed a Kd of 33 nM.
